Experimental findings from PMC11276004 are described below.

Assay [1] concerns the target YPet (Yellow fluorescent Protein for energy transfer). The assay is described as follows: AUC; sedimentation velocity, purified protein, 20 °C, PBS, 2-40 μM monomer, 40,000 rpm; c(s) fits in SEDFIT; monomer-dimer association model in SEDPHAT; constant is of dimer to monomers.
The target is the same in assay [2]. The assay is described as follows: AUC; sedimentation velocity on cleared bacterial lysates of expressing cultures, detection at 515 nm; 4.6 μM YPet in 14.3 mg/mL lysate, 6.2 μM mCLIFY in 13.7 mg/ml lysate.
The target is the same in assay [3]. The assay is described as follows: SEC-MALS; in line with SAXS; 100 μl of 260 μM YPet or 230 μM mCLIFY injected, Shodex 804 column, PBS, room temperature; 53 μM (YPet) and 48 μM (mCLIFY) at peak. On the technique in general: SEC sorts molecules by how far they enter the pores of the column.
Assay [4] shares this target. Put plainly: SEC-SAXS; synchrotron SAXS in line with SEC; 260 μM YPet or 230 μM mCLIFY injected, PBS, room temperature; SVD-EFA, mass from Qr and Porod.

Broadly, the Kd is a measure of binding affinity in units of concentration. A higher Kd goes with a looser complex. By stoichiometry N is commonly meant a count of units in the complex or per binding partner. In assay [1], “YPet (Yellow fluorescent Protein for energy transfer)” came in with a Kd of 3.4 µM. Also, the stoichiometry N in assay [1], in assay [2], in assay [3] and in assay [4] was 2 throughout.
